In publication PMC4417724 (Nature, 2014):

Assays:
[1] = molecular target: recombinant hexahistidine tagged human Archease (human); assay: SPR
[2] = molecular target: FLAG-RTCB (human tRNA ligase complex) with recombinant Archease (Homo sapiens, UniProt Q9Y3I0); assay: radiolabelled guanylation, SDS-PAGE autoradiography; assay type: biochemical; settings: covalent RTCB-guanylate intermediate; labelled compound; Archease 10 μM, ATP, Mg(OAc)2, pH 7.5, 37 °C
FLAG-RTCB (human tRNA ligase complex) with recombinant Archease, sequence (Q9Y3I0 whole entry): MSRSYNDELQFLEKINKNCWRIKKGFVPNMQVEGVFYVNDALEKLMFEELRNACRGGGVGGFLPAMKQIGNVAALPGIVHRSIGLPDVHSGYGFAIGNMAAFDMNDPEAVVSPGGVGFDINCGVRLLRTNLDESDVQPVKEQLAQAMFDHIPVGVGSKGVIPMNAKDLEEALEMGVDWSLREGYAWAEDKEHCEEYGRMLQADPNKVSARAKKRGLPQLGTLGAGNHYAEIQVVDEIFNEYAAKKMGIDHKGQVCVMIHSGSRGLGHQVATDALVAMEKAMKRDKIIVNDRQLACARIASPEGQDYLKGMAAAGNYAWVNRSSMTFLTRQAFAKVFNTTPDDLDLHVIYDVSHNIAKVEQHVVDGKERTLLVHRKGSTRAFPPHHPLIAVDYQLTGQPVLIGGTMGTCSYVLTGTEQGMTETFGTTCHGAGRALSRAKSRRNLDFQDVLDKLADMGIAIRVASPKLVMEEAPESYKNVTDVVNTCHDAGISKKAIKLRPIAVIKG
FLAG-RTCB (human tRNA ligase complex) with recombinant Archease, sequence (Q8IWT0 2-167 partner): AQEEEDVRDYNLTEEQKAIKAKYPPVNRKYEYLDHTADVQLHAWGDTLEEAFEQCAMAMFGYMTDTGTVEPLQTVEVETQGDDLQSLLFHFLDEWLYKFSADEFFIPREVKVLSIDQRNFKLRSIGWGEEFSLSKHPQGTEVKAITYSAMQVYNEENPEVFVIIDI
FLAG-RTCB (human tRNA ligase complex) with recombinant Archease, sequence (Q92499 whole entry partner): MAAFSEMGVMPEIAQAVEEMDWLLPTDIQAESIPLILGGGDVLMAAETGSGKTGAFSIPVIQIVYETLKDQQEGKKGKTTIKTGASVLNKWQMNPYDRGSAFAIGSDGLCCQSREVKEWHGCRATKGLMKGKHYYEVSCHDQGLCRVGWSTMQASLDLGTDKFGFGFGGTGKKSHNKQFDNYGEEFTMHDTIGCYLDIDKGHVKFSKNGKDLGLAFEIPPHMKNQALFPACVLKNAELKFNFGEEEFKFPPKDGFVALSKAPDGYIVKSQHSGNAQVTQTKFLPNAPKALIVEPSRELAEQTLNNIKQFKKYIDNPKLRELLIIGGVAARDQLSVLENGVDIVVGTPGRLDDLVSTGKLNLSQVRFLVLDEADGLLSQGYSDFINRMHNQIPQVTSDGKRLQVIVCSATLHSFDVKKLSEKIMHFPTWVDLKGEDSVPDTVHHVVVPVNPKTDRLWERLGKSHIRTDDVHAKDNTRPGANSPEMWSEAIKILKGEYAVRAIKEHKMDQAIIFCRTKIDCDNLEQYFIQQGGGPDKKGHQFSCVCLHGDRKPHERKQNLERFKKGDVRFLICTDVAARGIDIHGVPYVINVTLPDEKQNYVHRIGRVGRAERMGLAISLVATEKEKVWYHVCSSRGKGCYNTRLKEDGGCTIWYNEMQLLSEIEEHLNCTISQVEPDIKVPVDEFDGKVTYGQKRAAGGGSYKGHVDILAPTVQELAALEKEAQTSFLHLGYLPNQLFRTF
FLAG-RTCB (human tRNA ligase complex) with recombinant Archease, sequence (Q52LJ0 whole entry partner): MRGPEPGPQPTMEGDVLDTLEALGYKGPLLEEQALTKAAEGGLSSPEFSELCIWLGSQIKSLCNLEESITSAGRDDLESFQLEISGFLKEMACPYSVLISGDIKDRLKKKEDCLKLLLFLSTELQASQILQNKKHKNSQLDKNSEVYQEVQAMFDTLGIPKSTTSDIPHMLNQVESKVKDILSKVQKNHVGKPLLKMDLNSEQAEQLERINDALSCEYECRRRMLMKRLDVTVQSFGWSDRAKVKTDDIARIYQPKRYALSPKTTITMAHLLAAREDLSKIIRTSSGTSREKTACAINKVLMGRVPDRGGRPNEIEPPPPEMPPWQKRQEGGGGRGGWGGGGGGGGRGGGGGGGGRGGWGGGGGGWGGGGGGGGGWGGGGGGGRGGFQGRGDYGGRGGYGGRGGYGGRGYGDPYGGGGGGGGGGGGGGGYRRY
FLAG-RTCB (human tRNA ligase complex) with recombinant Archease, sequence (Q9BVC5 whole entry partner): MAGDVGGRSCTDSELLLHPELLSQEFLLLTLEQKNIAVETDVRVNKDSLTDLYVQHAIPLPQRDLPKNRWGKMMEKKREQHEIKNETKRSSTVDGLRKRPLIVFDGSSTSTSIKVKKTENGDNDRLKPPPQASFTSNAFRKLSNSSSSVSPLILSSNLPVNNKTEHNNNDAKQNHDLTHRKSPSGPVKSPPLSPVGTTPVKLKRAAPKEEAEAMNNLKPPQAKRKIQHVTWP
FLAG-RTCB (human tRNA ligase complex) with recombinant Archease, sequence (Q9Y224 whole entry partner): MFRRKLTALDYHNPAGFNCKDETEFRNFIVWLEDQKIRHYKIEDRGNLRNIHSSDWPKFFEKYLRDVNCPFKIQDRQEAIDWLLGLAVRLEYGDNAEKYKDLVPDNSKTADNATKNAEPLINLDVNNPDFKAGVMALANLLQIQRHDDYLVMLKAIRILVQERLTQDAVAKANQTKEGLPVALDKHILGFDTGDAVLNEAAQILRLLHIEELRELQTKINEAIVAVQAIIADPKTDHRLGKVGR

Kd [1] [nM]	Molecule	radiolabelled guanylation, SDS-PAGE autoradiography [2]
1.8	FLAG-RTCB complexes (human tRNA ligase complex affinity-purified by FLAG-RTCB) (from UniProt Q9Y3I0;Q92499;Q52LJ0;Q9Y224;Q9BVC5)	
	Nc1nc2c(ncn2[C@@H]2O[C@H](COP(=O)(O)OP(=O)(O)OP(=O)(O)O)[C@@H](O)[C@H]2O)c(=O)[nH]1 [GTP]	Formation of a radiolabeled band corresponding to guanylated human FLAG-RTCB required the addition of WT Archease
